# Assay results taken from US20100260668A1 (published 2010).
# Biological target: T1, DLL4 (DLL ECD His tag, R&D 1506-D4-050) (UniProt Q9NR61 27-529)
# T1 construct: extracellular domain; bought
# Experiment: BIACORE (SPR), DVD-Ig against DLL4
Binder,Kd,koff,kon
"DVD530 (bispecific antibody, human IgG1, kappa, lambda, L234A L235A, DVD-Ig; N-term; VD VEGF (AB014), C-term; VD DLL4 (AB073); HC linker short, LC linker long; also called DVD-Ig DVD530; DVD530H) heavy: not shown light: DIQMTQSPSSLSASVGDRVTITCSASQDISNYLNWYQQKPGKAPKVLIYFTSSLHSGVPSRFSGSGSGTDFTLTISSLQPEDFATYYCQQYSTVPWTFGQGTKVEIKRTVAAPSVFIFPPQAVVTQESALTTSPGETVTLTCRSSTGAVTTSNYANWVQEKPDHLFTGLIGGTNNRAPGVPARFSGSLIGDKAALTITGAQTEDEAIYFCALWYSNHWVFGGGTKLTVLGQPKAAPSVTLFPPSSEELQANKATLVCLISDFYPGAVTVAWKADSSPVKAGVETTTPSKQSNNKYAASSYLSLTPEQWKSHRSYSCQVTHEGSTVEKTVAPTECS",5.38 nM,0.00219 s⁻¹,407000 M⁻¹ s⁻¹
"DVD488 (bispecific antibody, human IgG1, kappa, DVD-Ig; N-term; VD VEGF (AB014), C-term; VD DLL4 (AB072); HC linker short, LC linker short; also called DVD-Ig DVD488; DVD488H) heavy: not shown light: DIQMTQSPSSLSASVGDRVTITCSASQDISNYLNWYQQKPGKAPKVLIYFTSSLHSGVPSRFSGSGSGTDFTLTISSLQPEDFATYYCQQYSTVPWTFGQGTKVEIKRTVAAPDIQMTQSSSYLSVSLGGRVTITCKASDHINNWLAWYQQKPGNAPRLLISGATSLETGVPSRFSGSGSGKDYTLSITSLQTEDVATYYCQQYWSIPLTFGAGTKLELKRTVAAPSVFIFPPSDEQLKSGTASVVCLLNNFYPREAKVQWKVDNALQSGNSQESVTEQDSKDSTYSLSSTLTLSKADYEKHKVYACEVTHQGLSSPVTKSFNRGEC",0.418 nM,6.62e-05 s⁻¹,159000 M⁻¹ s⁻¹
"DVD494 (bispecific antibody, human IgG1, kappa, DVD-Ig; N-term; VD VEGF (AB014), C-term; VD DLL4 (AB072); HC linker long, LC linker long; also called DVD-Ig DVD494; DVD494H) heavy: not shown light: DIQMTQSPSSLSASVGDRVTITCSASQDISNYLNWYQQKPGKAPKVLIYFTSSLHSGVPSRFSGSGSGTDFTLTISSLQPEDFATYYCQQYSTVPWTFGQGTKVEIKRTVAAPSVFIFPPDIQMTQSSSYLSVSLGGRVTITCKASDHINNWLAWYQQKPGNAPRLLISGATSLETGVPSRFSGSGSGKDYTLSITSLQTEDVATYYCQQYWSIPLTFGAGTKLELKRTVAAPSVFIFPPSDEQLKSGTASVVCLLNNFYPREAKVQWKVDNALQSGNSQESVTEQDSKDSTYSLSSTLTLSKADYEKHKVYACEVTHQGLSSPVTKSFNRGEC",1.39 nM,0.000183 s⁻¹,132000 M⁻¹ s⁻¹
"DVD506 (bispecific antibody, human IgG1, kappa, DVD-Ig; N-term; VD VEGF (AB014), C-term; VD DLL4 (AB072); HC linker short, LC linker long; also called DVD-Ig DVD506; DVD506H) heavy: not shown light: DIQMTQSPSSLSASVGDRVTITCSASQDISNYLNWYQQKPGKAPKVLIYFTSSLHSGVPSRFSGSGSGTDFTLTISSLQPEDFATYYCQQYSTVPWTFGQGTKVEIKRTVAAPSVFIFPPDIQMTQSSSYLSVSLGGRVTITCKASDHINNWLAWYQQKPGNAPRLLISGATSLETGVPSRFSGSGSGKDYTLSITSLQTEDVATYYCQQYWSIPLTFGAGTKLELKRTVAAPSVFIFPPSDEQLKSGTASVVCLLNNFYPREAKVQWKVDNALQSGNSQESVTEQDSKDSTYSLSSTLTLSKADYEKHKVYACEVTHQGLSSPVTKSFNRGEC",1.47 nM,0.000104 s⁻¹,70700 M⁻¹ s⁻¹
"DVD467 (bispecific antibody, human IgG1, kappa, DVD-Ig; N-term; VD DLL4 (AB015), C-term; VD VEGF (AB071); HC linker short, LC linker short; 2'; 3'; also called DVD-Ig DVD467; DVD467H) heavy: not shown light: DIQMTQSPSSLSASVGDRVTITCRASQDVSTAVAWYQQKPGKAPKLLIYSASFLYSGVPSRFSGSGSGTDFTLTISSLQPEDFATTYYCQQSYTGTVTFGQGTKVEIKRTVAAPDIQMTQSPSSLSASVGDRVTITCRASQVIRRSLAWYQQKPGKAPKLLIYAASNLASGVPSRFSGSGSGTDFTLTISSLQPEDFATYYCQQSNTSPLTFGQGTKVEIKRTVAAPSVFIFPPSDEQLKSGTASVVCLLNNFYPREAKVQWKVDNALQSGNSQESVTEQDSKDSTYSLSSTLTLSKADYEKHKVYACEVTHQGLSSPVTKSFNRGEC",0.302 nM,0.000177 s⁻¹,585000 M⁻¹ s⁻¹
"DVD473 (bispecific antibody, human IgG1, kappa, DVD-Ig; N-term; VD DLL4 (AB015), C-term; VD VEGF (AB071); HC linker long, LC linker long; also called DVD-Ig DVD473; DVD473H) heavy: not shown light: DIQMTQSPSSLSASVGDRVTITCRASQDVSTAVAWYQQKPGKAPKLLIYSASFLYSGVPSRFSGSGSGTDFTLTISSLQPEDFATTYYCQQSYTGTVTFGQGTKVEIKRTVAAPSVFIFPPDIQMTQSPSSLSASVGDRVTITCRASQVIRRSLAWYQQKPGKAPKLLIYAASNLASGVPSRFSGSGSGTDFTLTISSLQPEDFATYYCQQSNTSPLTFGQGTKVEIKRTVAAPSVFIFPPSDEQLKSGTASVVCLLNNFYPREAKVQWKVDNALQSGNSQESVTEQDSKDSTYSLSSTLTLSKADYEKHKVYACEVTHQGLSSPVTKSFNRGEC",0.716 nM,0.000161 s⁻¹,226000 M⁻¹ s⁻¹
"DVD479 (bispecific antibody, human IgG1, kappa, DVD-Ig; N-term; VD DLL4 (AB015), C-term; VD VEGF (AB071); HC linker long, LC linker short; also called DVD-Ig DVD479; DVD479H) heavy: not shown light: DIQMTQSPSSLSASVGDRVTITCRASQDVSTAVAWYQQKPGKAPKLLIYSASFLYSGVPSRFSGSGSGTDFTLTISSLQPEDFATTYYCQQSYTGTVTFGQGTKVEIKRTVAAPDIQMTQSPSSLSASVGDRVTITCRASQVIRRSLAWYQQKPGKAPKLLIYAASNLASGVPSRFSGSGSGTDFTLTISSLQPEDFATYYCQQSNTSPLTFGQGTKVEIKRTVAAPSVFIFPPSDEQLKSGTASVVCLLNNFYPREAKVQWKVDNALQSGNSQESVTEQDSKDSTYSLSSTLTLSKADYEKHKVYACEVTHQGLSSPVTKSFNRGEC",0.441 nM,0.000174 s⁻¹,395000 M⁻¹ s⁻¹
"DVD485 (bispecific antibody, human IgG1, kappa, DVD-Ig; N-term; VD DLL4 (AB015), C-term; VD VEGF (AB071); HC linker short, LC linker long; also called DVD-Ig DVD485; DVD485H) heavy: not shown light: DIQMTQSPSSLSASVGDRVTITCRASQDVSTAVAWYQQKPGKAPKLLIYSASFLYSGVPSRFSGSGSGTDFTLTISSLQPEDFATTYYCQQSYTGTVTFGQGTKVEIKRTVAAPSVFIFPPDIQMTQSPSSLSASVGDRVTITCRASQVIRRSLAWYQQKPGKAPKLLIYAASNLASGVPSRFSGSGSGTDFTLTISSLQPEDFATYYCQQSNTSPLTFGQGTKVEIKRTVAAPSVFIFPPSDEQLKSGTASVVCLLNNFYPREAKVQWKVDNALQSGNSQESVTEQDSKDSTYSLSSTLTLSKADYEKHKVYACEVTHQGLSSPVTKSFNRGEC",1.16 nM,–,–
